Reference: PMC10527606

Key:
[1] = target: humanized 5c8 (hu5c8) (human (humanized antibody)); experiment: SPR
TNX-1500 (human) = experiment: SPR

Substance	Kd [1] [nM]	Kd (TNX-1500 (human)) [nM]
FcγRIIaH (from UniProt P12318 34-217) (receptor)	510	7100
FcγRIIIaF (from UniProt P08637 17-208) (receptor)	1700	–
FcγRIIbF (from UniProt P31994 43-217) (receptor)	970	–
FcγRIIIaV (from UniProt P08637 17-208) (receptor)	330	–
FcγRIa (from UniProt P12314 16-292) (receptor)	0.033	8.7
